Experimental data taken from the supplement of paper PMC10126150.
± gives the standard deviation of the averaged measurements.

Test system: ATP
Experiment: switch fluorescence ratio, 500 uM ATP over buffer (Cy3 cluster intensity, sum of 5 cycles each) (fold (ratio)); higher = stronger signal-on switching upon ATP binding; sequences stand for … in TCGTCGGCAGCGTCAGATGTGTATAAGAGACAGTTTTTTTTTTTTTTTTTTTTTTTTT…TC
Conditions: aptamer strand: ATP DNA aptamer (quencher-CACCTGGGGGAGTATTGCGGAGGAAGG + anchor), 100 nM annealed; ATP concentration: 500 uM
Procedure, shortened: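 Exposure to 500 uM ATP lasted 15 min at 22 °C before imaging, and a selection-buffer image was taken beforehand, for Cy3-labelled switching-strand clusters on a modified Illumina MiSeq flow-cell annealed to 100 nM quencher-labelled ATP aptamer. Five buffer/ATP cycles were run with NaOH stripping and re-annealing between them. The fluorescence ratio per cluster is summed target-cycle over summed buffer-cycle Cy3 intensity, averaged per switch-domain sequence. Clusters outside 100-1000 RFU were excluded.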

Row | Sequence | switch fluorescence ratio
1 | AGTGGTTATT | 0.989 ± 0.032
2 | AGTGTAATGT | 0.975 ± 0.059
3 | AGTGTATCCC | 1.01 ± 0.034
4 | AGTGTCGTGC | 1 ± 0.025
5 | AGTGTCGTTT | 0.991 ± 0.02
6 | AGTGTCTTTG | 0.954 ± 0.011
7 | AGTGTGGGCG | 1.04 ± 0.02
8 | AGTGTGGGGG | 1.01 ± 0.029
9 | AGTGTGGTGC | 0.9778 ± 0.0073
10 | AGTGTTACG | 1.01 ± 0.04
11 | AGTGTTATTT | 0.993 ± 0.011
12 | AGTGTTCGCT | 0.9732 ± 0.0052
13 | AGTGTTCTCG | 0.983 ± 0.017
14 | AGTGTTGATG | 0.975 ± 0.051
15 | AGTGTTGCGG | 0.952 ± 0.021
16 | AGTGTTGGCC | 1.023 ± 0.0089
17 | AGTGTTGGG | 0.9768 ± 0.0046
18 | AGTGTTGTCA | 0.97 ± 0.043
19 | AGTGTTGTGC | 1.01 ± 0.033
20 | AGTGTTGTTG | 0.9727 ± 0.0095
21 | AGTGTTTAAA | 0.969 ± 0.025
22 | AGTGTTTCAG | 0.956 ± 0.018

Row | Sequence | switch fluorescence ratio
23 | AGTGTTTGCC | 1.036 ± 0.0035
24 | AGTGTTTGGC | 1.01 ± 0.022
25 | AGTGTTTTAA | 0.994 ± 0.033
26 | AGTTAAAGTG | 1.03 ± 0.057
27 | AGTTAATGCT | 0.9856 ± 0.0026
28 | AGTTAGACTT | 1.02 ± 0.064
29 | AGTTAGAGTG | 0.976 ± 0.016
30 | AGTTAGGAAG | 0.973 ± 0.011
31 | AGTTAGGGGC | 0.995 ± 0.053
32 | AGTTATCGAA | 1.009 ± 0.0036
33 | AGTTATTAAT | 1.06 ± 0.054
34 | AGTTATTGAG | 0.9991 ± 0.0043
35 | AGTTATTGCC | 1.01 ± 0.029
36 | AGTTATTTTT | 0.991 ± 0.011
37 | AGTTCCGTTG | 1.028 ± 0.0097
38 | AGTTCGGCGT | 0.999 ± 0.029
39 | AGTTCGGTGC | 0.9799 ± 0.0012
40 | AGTTCGTTA | 0.9861 ± 0.0056
41 | AGTTGAAGGG | 0.973 ± 0.018
42 | AGTTGAATTG | 0.994 ± 0.022
43 | AGTTGAGATG | 0.971 ± 0.033
44 | AGTTGAGGAA | 1 ± 0.026

Row | Sequence | switch fluorescence ratio
45 | AGTTGATGGG | 0.978 ± 0.049
46 | AGTTGCCCGG | 1.006 ± 0.0068
47 | AGTTGCGTCG | 0.997 ± 0.031
48 | AGTTGCTGCT | 0.995 ± 0.02
49 | AGTTGCTTGG | 1.01 ± 0.041
50 | AGTTGGAATT | 0.979 ± 0.012
51 | AGTTGGACAG | 1.02 ± 0.012
52 | AGTTGGAGGC | 0.9476 ± 0.0088
53 | AGTTGGATC | 1.02 ± 0.015
54 | AGTTGGCGGC | 1.02 ± 0.039
55 | AGTTGGCTTG | 1.03 ± 0.03
56 | AGTTGGGGTA | 1 ± 0.013
57 | AGTTGGGGTT | 1.035 ± 0.0033
58 | AGTTGGGTCG | 1.004 ± 0.0056
59 | AGTTGGTGG | 1.02 ± 0.024
60 | AGTTGGTTAC | 1.01 ± 0.023
61 | AGTTGGTTAT | 0.974 ± 0.022
62 | AGTTGTAAGG | 0.962 ± 0.014
63 | AGTTGTACAA | 1.012 ± 0.01
64 | AGTTGTGGGC | 0.968 ± 0.018
65 | AGTTGTGTAT | 1.01 ± 0.051
66 | AGTTGTTAGT | 0.969 ± 0.021

Row | Sequence | switch fluorescence ratio
67 | AGTTGTTTGG | 1 ± 0.025
68 | AGTTTAGGGG | 0.9796 ± 0.0016
69 | AGTTTAGTGA | 0.996 ± 0.044
70 | AGTTTATAGA | 1.01 ± 0.023
71 | AGTTTATGCA | 1 ± 0.017
72 | AGTTTATGCG | 0.979 ± 0.021
73 | AGTTTATTC | 1.01 ± 0.061
74 | AGTTTCCTGC | 1.01 ± 0.015
75 | AGTTTCGCTC | 0.987 ± 0.063
76 | AGTTTCGGCG | 1 ± 0.02
77 | AGTTTCTAGT | 0.97 ± 0.043
78 | AGTTTGATGG | 0.99 ± 0.087
79 | AGTTTGCGGC | 0.94 ± 0.039
80 | AGTTTGGGAA | 1 ± 0.018
81 | AGTTTGGGTA | 0.9959 ± 0.008
82 | AGTTTGGGTC | 0.984 ± 0.057
83 | AGTTTGGTGC | 1.05 ± 0.027
84 | AGTTTGTTCG | 0.953 ± 0.022
85 | AGTTTTACAG | 1.01 ± 0.02
